Source: the supplement of paper PMC10126150
± gives the standard deviation of the averaged measurements.

Test system: ATP
Assay: switch fluorescence ratio, 500 uM ATP over buffer (Cy3 cluster intensity, sum of 5 cycles each) (fold (ratio)); higher = stronger signal-on switching upon ATP binding; sequences stand for … in TCGTCGGCAGCGTCAGATGTGTATAAGAGACAGTTTTTTTTTTTTTTTTTTTTTTTTT…TC
Conditions: aptamer strand: ATP DNA aptamer (quencher-CACCTGGGGGAGTATTGCGGAGGAAGG + anchor), 100 nM annealed; ATP concentration: 500 uM
In short: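 Clusters with intensities outside 100-1000 RFU were excluded. The remaining Cy3-labelled switching-strand clusters on a modified Illumina MiSeq flow-cell had been annealed to 100 nM quencher-labelled ATP aptamer and imaged in selection buffer, then after 15 min with 500 uM ATP at 22 °C, for five cycles separated by NaOH stripping and re-annealing. The fluorescence ratio, averaged per switch-domain sequence, is each cluster's summed target-cycle Cy3 intensity over its summed buffer-cycle Cy3 intensity.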
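Further: ATP exposure 15 min at 22 °C before imaging.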

TGCCTATTTC
switch fluorescence ratio: 1.02 ± 0.017

TGCCTCAGGG
switch fluorescence ratio: 1.08 ± 0.021

TGCCTTATTA
switch fluorescence ratio: 1.035 ± 0.0067

TGCCTTTTCG
switch fluorescence ratio: 1.02 ± 0.057

TGCGAAAATT
switch fluorescence ratio: 1.01 ± 0.08

TGCGAATTCT
switch fluorescence ratio: 1.03 ± 0.011

TGCGAATTGT
switch fluorescence ratio: 1.01 ± 0.012

TGCGACATGT
switch fluorescence ratio: 0.969 ± 0.027

TGCGAGAAGG
switch fluorescence ratio: 0.999 ± 0.011

TGCGCAAAAG
switch fluorescence ratio: 1.01 ± 0.012

TGCGCATCTA
switch fluorescence ratio: 1.038 ± 0.0098

TGCGCCAACT
switch fluorescence ratio: 1.06 ± 0.011

TGCGCCCGGC
switch fluorescence ratio: 1.031 ± 0.0027

TGCGCCCGGG
switch fluorescence ratio: 1.033 ± 0.0076

TGCGCCGTGG
switch fluorescence ratio: 1.02 ± 0.02

TGCGCTACGG
switch fluorescence ratio: 1.08 ± 0.039

TGCGGAAGTT
switch fluorescence ratio: 1.01 ± 0.023

TGCGGAGGGC
switch fluorescence ratio: 1.01 ± 0.043

TGCGGATGTT
switch fluorescence ratio: 0.953 ± 0.013

TGCGGCGGGT
switch fluorescence ratio: 1.04 ± 0.012

TGCGGGAAGT
switch fluorescence ratio: 1 ± 0.014

TGCGGGACT
switch fluorescence ratio: 2.28 ± 1.8

TGCGGGATGA
switch fluorescence ratio: 1.04 ± 0.018

TGCGGGCAAT
switch fluorescence ratio: 1.1 ± 0.039

TGCGGGGAGC
switch fluorescence ratio: 0.975 ± 0.041

TGCGGGGGAT
switch fluorescence ratio: 1.02 ± 0.033

TGCGGGGGTT
switch fluorescence ratio: 1.02 ± 0.03

TGCGGGGTCG
switch fluorescence ratio: 1.01 ± 0.016

TGCGGGTGTG
switch fluorescence ratio: 1.03 ± 0.021

TGCGGTAAAA
switch fluorescence ratio: 1.03 ± 0.063

TGCGGTTTAG
switch fluorescence ratio: 1.04 ± 0.016

TGCGTCAGGG
switch fluorescence ratio: 0.974 ± 0.015

TGCGTCTTTG
switch fluorescence ratio: 1.01 ± 0.034

TGCGTGCTGG
switch fluorescence ratio: 0.985 ± 0.022

TGCGTTATAA
switch fluorescence ratio: 1.02 ± 0.022

TGCGTTGGGG
switch fluorescence ratio: 0.981 ± 0.019

TGCGTTTGGG
switch fluorescence ratio: 1.05 ± 0.064

TGCGTTTTTA
switch fluorescence ratio: 1 ± 0.043

TGCTAAATTA
switch fluorescence ratio: 1.01 ± 0.011

TGCTAATAGT
switch fluorescence ratio: 1.028 ± 0.0074

TGCTACAGGT
switch fluorescence ratio: 1.04 ± 0.022

TGCTAGACTG
switch fluorescence ratio: 1.03 ± 0.09

TGCTAGTTT
switch fluorescence ratio: 0.98 ± 0.015

TGCTATATGG
switch fluorescence ratio: 0.994 ± 0.022

TGCTATGAGG
switch fluorescence ratio: 1.01 ± 0.043

TGCTCACGGT
switch fluorescence ratio: 1.02 ± 0.041

TGCTCCTAAC
switch fluorescence ratio: 1.3 ± 0.051

TGCTGAGGGC
switch fluorescence ratio: 1.01 ± 0.013

TGCTGCAGTG
switch fluorescence ratio: 0.966 ± 0.024

TGCTGCGCTT
switch fluorescence ratio: 1.14 ± 0.081

TGCTGCTCAG
switch fluorescence ratio: 1.01 ± 0.032

TGCTGCTCGG
switch fluorescence ratio: 0.973 ± 0.031

TGCTGCTTTT
switch fluorescence ratio: 0.943 ± 0.036

TGCTGGCATG
switch fluorescence ratio: 0.967 ± 0.014

TGCTGGGGGA
switch fluorescence ratio: 1.01 ± 0.025

TGCTGGTATA
switch fluorescence ratio: 0.983 ± 0.038

TGCTGGTTGG
switch fluorescence ratio: 0.998 ± 0.026

TGCTGGTTTT
switch fluorescence ratio: 1.01 ± 0.037

TGCTGTGTTT
switch fluorescence ratio: 1.02 ± 0.039

TGCTGTTGTA
switch fluorescence ratio: 0.998 ± 0.033

TGCTGTTTAC
switch fluorescence ratio: 1.2 ± 0.28

TGCTTACTTT
switch fluorescence ratio: 1.33 ± 0.58

TGCTTCCGAA
switch fluorescence ratio: 1.52 ± 0.082

TGCTTCTAAC
switch fluorescence ratio: 1.006 ± 0.0082

TGCTTGCTTT
switch fluorescence ratio: 1.004 ± 0.01

TGCTTGGCTA
switch fluorescence ratio: 0.98 ± 0.033

TGCTTTGGGG
switch fluorescence ratio: 0.982 ± 0.071

TGCTTTTTAA
switch fluorescence ratio: 1.03 ± 0.063

TGGAAAAACT
switch fluorescence ratio: 1.08 ± 0.029

TGGAAACCGG
switch fluorescence ratio: 1.009 ± 0.0055

TGGAAAGGGG
switch fluorescence ratio: 1.01 ± 0.014

TGGAAAGTGT
switch fluorescence ratio: 0.987 ± 0.018

TGGAAATAAG
switch fluorescence ratio: 1.03 ± 0.047

TGGAAATTGG
switch fluorescence ratio: 1.01 ± 0.02

TGGAAATTGT
switch fluorescence ratio: 0.9944 ± 0.0077

TGGAAATTTT
switch fluorescence ratio: 1 ± 0.038

TGGAAGCGTC
switch fluorescence ratio: 1.02 ± 0.022

TGGAAGGGAG
switch fluorescence ratio: 0.9738 ± 0.0083

TGGAAGGGGA
switch fluorescence ratio: 1 ± 0.013

TGGAAGGGGC
switch fluorescence ratio: 1.04 ± 0.035

TGGAAGTTGG
switch fluorescence ratio: 0.989 ± 0.023

TGGAATAATT
switch fluorescence ratio: 1.003 ± 0.0081

TGGAATACG
switch fluorescence ratio: 1.35 ± 0.036

TGGAATATTC
switch fluorescence ratio: 1.04 ± 0.011

TGGAATATTT
switch fluorescence ratio: 1.03 ± 0.044

TGGAATGTTG
switch fluorescence ratio: 1.02 ± 0.0078

TGGAATTCGG
switch fluorescence ratio: 1.02 ± 0.0061

TGGAATTGTG
switch fluorescence ratio: 1.05 ± 0.058

TGGACAACTT
switch fluorescence ratio: 0.995 ± 0.025

TGGACCAAAA
switch fluorescence ratio: 1.03 ± 0.013

TGGACCGGTT
switch fluorescence ratio: 1.034 ± 0.0016

TGGACGCGCT
switch fluorescence ratio: 1.01 ± 0.025

TGGACGGGTT
switch fluorescence ratio: 1.02 ± 0.014

TGGACGTCGT
switch fluorescence ratio: 0.987 ± 0.019

TGGACGTGGG
switch fluorescence ratio: 0.98 ± 0.052

TGGACGTTGC
switch fluorescence ratio: 1.03 ± 0.012

TGGACTAGAA
switch fluorescence ratio: 0.983 ± 0.042

TGGACTCTGG
switch fluorescence ratio: 0.973 ± 0.02

TGGACTTAGG
switch fluorescence ratio: 0.987 ± 0.03

TGGAGAGGGA
switch fluorescence ratio: 0.9805 ± 0.0078

TGGAGAGGGT
switch fluorescence ratio: 0.976 ± 0.0099

TGGAGAGGTG
switch fluorescence ratio: 1.02 ± 0.083

TGGAGCTGCA
switch fluorescence ratio: 1.04 ± 0.09

TGGAGCTTGA
switch fluorescence ratio: 1.02 ± 0.021

TGGAGGAGGG
switch fluorescence ratio: 1 ± 0.032

TGGAGGATTG
switch fluorescence ratio: 0.991 ± 0.016

TGGAGGGCTT
switch fluorescence ratio: 1.04 ± 0.021

TGGAGGGGAG
switch fluorescence ratio: 0.9858 ± 0.0062

TGGAGGGGTT
switch fluorescence ratio: 1.02 ± 0.037

TGGAGTTTTT
switch fluorescence ratio: 0.985 ± 0.032

TGGATACACT
switch fluorescence ratio: 1.04 ± 0.032

TGGATAGTGT
switch fluorescence ratio: 0.998 ± 0.011

TGGATATAGG
switch fluorescence ratio: 1.03 ± 0.038

TGGATATTTG
switch fluorescence ratio: 0.983 ± 0.065

TGGATCCCCA
switch fluorescence ratio: 1.06 ± 0.091

TGGATGAGCT
switch fluorescence ratio: 0.9968 ± 0.0088

TGGATGCTTG
switch fluorescence ratio: 1.01 ± 0.045

TGGATGGAAT
switch fluorescence ratio: 0.961 ± 0.035

TGGATGTATT
switch fluorescence ratio: 1.28 ± 0.4

TGGATGTTTA
switch fluorescence ratio: 1.03 ± 0.024

TGGATTATTG
switch fluorescence ratio: 0.9445 ± 0.0019

TGGATTGAGC
switch fluorescence ratio: 0.967 ± 0.026

TGGATTTTGC
switch fluorescence ratio: 0.989 ± 0.029

TGGCAACACC
switch fluorescence ratio: 1.94 ± 1.2

TGGCAATGGG
switch fluorescence ratio: 1.05 ± 0.017

TGGCAGGGGT
switch fluorescence ratio: 1.56 ± 0.63

TGGCAGGTTG
switch fluorescence ratio: 1.01 ± 0.013

TGGCCCCTAT
switch fluorescence ratio: 0.962 ± 0.029

TGGCCGGCTG
switch fluorescence ratio: 1 ± 0.074

TGGCCGGTGT
switch fluorescence ratio: 0.991 ± 0.032

TGGCCGGTTT
switch fluorescence ratio: 1.01 ± 0.011

TGGCGAACGG
switch fluorescence ratio: 1.01 ± 0.052

TGGCGAAGTA
switch fluorescence ratio: 1.01 ± 0.013

TGGCGATAAT
switch fluorescence ratio: 1.05 ± 0.031

TGGCGCTGGG
switch fluorescence ratio: 0.978 ± 0.022

TGGCGGGGCG
switch fluorescence ratio: 1.02 ± 0.038

TGGCGGGGGA
switch fluorescence ratio: 1.05 ± 0.042

TGGCGGGTCG
switch fluorescence ratio: 1.06 ± 0.079

TGGCGGGTTA
switch fluorescence ratio: 0.988 ± 0.067

TGGCGGTGGT
switch fluorescence ratio: 0.978 ± 0.017

TGGCGGTTTT
switch fluorescence ratio: 1.005 ± 0.0077

TGGCTAAACG
switch fluorescence ratio: 0.992 ± 0.019

TGGCTGACAG
switch fluorescence ratio: 0.992 ± 0.023

TGGCTGTACA
switch fluorescence ratio: 1.01 ± 0.025

TGGCTGTTTT
switch fluorescence ratio: 1.04 ± 0.042

TGGCTTAGTT
switch fluorescence ratio: 0.9956 ± 0.0026

TGGCTTGCCG
switch fluorescence ratio: 0.998 ± 0.027

TGGCTTTTGT
switch fluorescence ratio: 1.44 ± 0.63

TGGGAAAATG
switch fluorescence ratio: 1.018 ± 0.0069

TGGGAAAGGC
switch fluorescence ratio: 1.07 ± 0.061

TGGGAAATTT
switch fluorescence ratio: 1.1 ± 0.12

TGGGAACGGG
switch fluorescence ratio: 0.983 ± 0.018

TGGGAAGAGT
switch fluorescence ratio: 0.996 ± 0.028

TGGGAAGGGG
switch fluorescence ratio: 0.998 ± 0.013

TGGGAAGTGG
switch fluorescence ratio: 1.04 ± 0.071

TGGGAATGGG
switch fluorescence ratio: 0.986 ± 0.011

TGGGAATTTT
switch fluorescence ratio: 1.01 ± 0.049

TGGGACGGGC
switch fluorescence ratio: 0.98 ± 0.049

TGGGAGAAAG
switch fluorescence ratio: 0.999 ± 0.024

TGGGAGAGGG
switch fluorescence ratio: 1.01 ± 0.02

TGGGAGAGTA
switch fluorescence ratio: 0.996 ± 0.034

TGGGAGGAAA
switch fluorescence ratio: 1.01 ± 0.039

TGGGAGGAGG
switch fluorescence ratio: 1.01 ± 0.077

TGGGAGGCCT
switch fluorescence ratio: 1.02 ± 0.021

TGGGAGGGCT
switch fluorescence ratio: 1.05 ± 0.093

TGGGAGGGGT
switch fluorescence ratio: 1.01 ± 0.014

TGGGAGGTGT
switch fluorescence ratio: 1.04 ± 0.028

TGGGAGTAAA
switch fluorescence ratio: 1.02 ± 0.027

TGGGAGTACT
switch fluorescence ratio: 1.0104 ± 0.00041

TGGGAGTCTG
switch fluorescence ratio: 0.9898 ± 0.0047

TGGGAGTGGG
switch fluorescence ratio: 0.983 ± 0.019

TGGGATACGG
switch fluorescence ratio: 1.61 ± 1

TGGGATACTG
switch fluorescence ratio: 1 ± 0.013

TGGGATAGAG
switch fluorescence ratio: 1 ± 0.021

TGGGATATTC
switch fluorescence ratio: 0.9991 ± 0.0032

TGGGATTAGT
switch fluorescence ratio: 0.9868 ± 0.00058

TGGGCAAGGT
switch fluorescence ratio: 1.05 ± 0.038

TGGGCAGGGG
switch fluorescence ratio: 1.3 ± 0.57

TGGGCCAGA
switch fluorescence ratio: 1.01 ± 0.024

TGGGCCGCGC
switch fluorescence ratio: 1.04 ± 0.046

TGGGCCTAAG
switch fluorescence ratio: 0.968 ± 0.061

TGGGCG
switch fluorescence ratio: 0.994 ± 0.018

TGGGCGAATG
switch fluorescence ratio: 0.9946 ± 0.0058

TGGGCGGGGC
switch fluorescence ratio: 0.998 ± 0.018

TGGGCGGGGG
switch fluorescence ratio: 1.03 ± 0.036

TGGGCGGTCT
switch fluorescence ratio: 1.03 ± 0.039

TGGGCTCCTT
switch fluorescence ratio: 1 ± 0.043

TGGGCTGCTT
switch fluorescence ratio: 0.965 ± 0.017

TGGGGAAAAC
switch fluorescence ratio: 1.02 ± 0.051

TGGGGAAATA
switch fluorescence ratio: 1.41 ± 0.57

TGGGGAACTT
switch fluorescence ratio: 1.03 ± 0.041

TGGGGAATAA
switch fluorescence ratio: 1.01 ± 0.022

TGGGGACGGG
switch fluorescence ratio: 1 ± 0.046

TGGGGACTTT
switch fluorescence ratio: 1.04 ± 0.045

TGGGGAGAAC
switch fluorescence ratio: 1.055 ± 0.0077

TGGGGATACT
switch fluorescence ratio: 1.04 ± 0.036

TGGGGATAGC
switch fluorescence ratio: 1.02 ± 0.053

TGGGGATCAC
switch fluorescence ratio: 1.01 ± 0.071

TGGGGATGGG
switch fluorescence ratio: 0.996 ± 0.029

TGGGGATGGT
switch fluorescence ratio: 0.991 ± 0.062
